According to patent US20200115464A1:

Tests used:
[1] = molecular target: human CD3 on Jurkat cells (CD3+, CD20- human T-cell line) (human) (UniProt P07766); assay: FACS, serially diluted antibody on Jurkat cells (CD3+, CD20-)
FcR on U937 cells = assay: cell-based or functional assay
[2] = molecular target: cynomolgus CD3 on T cells of cynomolgus PBMCs (mkT cells) (cynomolgus monkey); assay: FACS, serially diluted antibody on cynomolgus PBMC T cells (mkT cells)
[3] = molecular target: His-tagged human FcγRI (human) (UniProt P12314); assay: SPR (Biacore T200), His-captured human FcγRI, antibody injected, 25 C
Sequence of His-tagged human FcγRI (human) (P12314 16-288 limits assumed): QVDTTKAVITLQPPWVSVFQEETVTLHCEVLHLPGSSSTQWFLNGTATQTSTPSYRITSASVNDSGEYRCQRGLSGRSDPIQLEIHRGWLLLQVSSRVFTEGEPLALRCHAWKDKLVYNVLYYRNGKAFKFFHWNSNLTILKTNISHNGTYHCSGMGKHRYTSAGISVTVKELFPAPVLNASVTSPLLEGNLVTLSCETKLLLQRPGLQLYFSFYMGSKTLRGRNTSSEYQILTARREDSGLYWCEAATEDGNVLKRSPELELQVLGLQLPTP

[4] = molecular target: His-tagged human FcγRIIIB (human) (UniProt O75015); assay: SPR steady-state, His-captured FcγR, antibody injected, 25 C
Sequence of His-tagged human FcγRIIIB (human) (O75015 17-200 limits assumed): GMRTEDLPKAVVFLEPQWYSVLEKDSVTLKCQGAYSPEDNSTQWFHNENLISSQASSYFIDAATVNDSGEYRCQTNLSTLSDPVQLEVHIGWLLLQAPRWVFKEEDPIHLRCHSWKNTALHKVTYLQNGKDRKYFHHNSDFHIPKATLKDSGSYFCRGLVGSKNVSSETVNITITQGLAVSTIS

[5] = molecular target: His-tagged cynomolgus FcγRIIIA (cynomolgus monkey) (UniProt Q8SPW2); assay: as above
Sequence of His-tagged cynomolgus FcγRIIIA (cynomolgus monkey) (Q8SPW2 17-208 limits assumed): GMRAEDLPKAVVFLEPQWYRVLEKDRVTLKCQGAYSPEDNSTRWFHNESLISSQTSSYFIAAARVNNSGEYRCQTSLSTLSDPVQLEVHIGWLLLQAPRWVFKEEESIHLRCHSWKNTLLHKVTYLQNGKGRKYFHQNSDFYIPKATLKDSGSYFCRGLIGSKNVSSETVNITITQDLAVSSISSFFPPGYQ

[6] = molecular target: His-tagged human FcγRIIIA (V176) (human) (UniProt P08637); assay: as above
Sequence of His-tagged human FcγRIIIA (V176) (human) (P08637 17-208 F176V limits assumed): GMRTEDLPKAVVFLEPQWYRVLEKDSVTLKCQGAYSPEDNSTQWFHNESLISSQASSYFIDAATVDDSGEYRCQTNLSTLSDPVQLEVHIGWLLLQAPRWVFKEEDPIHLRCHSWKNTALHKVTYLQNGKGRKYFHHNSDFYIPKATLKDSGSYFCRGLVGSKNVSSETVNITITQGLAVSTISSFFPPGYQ

[7] = molecular target: His-tagged human FcγRIIIA (F176) (human) (UniProt P08637); assay: as above
Sequence of His-tagged human FcγRIIIA (F176) (human) (P08637 17-208 limits assumed): as the sequence (P08637 17-208 F176V limits assumed) above, with V160F counted along it

[8] = molecular target: His-tagged human FcγRIIA (H131) (human) (UniProt P12318); assay: as above
Sequence of His-tagged human FcγRIIA (H131) (human) (P12318 36-218 limits assumed): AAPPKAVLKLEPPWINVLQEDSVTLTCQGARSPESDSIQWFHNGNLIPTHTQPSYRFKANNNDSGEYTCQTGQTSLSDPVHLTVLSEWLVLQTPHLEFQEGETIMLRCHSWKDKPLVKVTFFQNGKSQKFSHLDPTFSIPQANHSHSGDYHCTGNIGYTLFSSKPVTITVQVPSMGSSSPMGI

[9] = molecular target: His-tagged cynomolgus FcγRIIB (cynomolgus monkey); assay: as above
[10] = molecular target: His-tagged human FcγRIIA (R131) (human) (UniProt P12318); assay: as above
Sequence of His-tagged human FcγRIIA (R131) (human) (P12318 36-218 H167R limits assumed): as the sequence (P12318 36-218 limits assumed) above, with H132R counted along it

[11] = molecular target: His-tagged cynomolgus FcγRIIA (cynomolgus monkey); assay: as above
[12] = molecular target: His-tagged human FcγRIIB (human) (UniProt P31994); assay: as above
Sequence of His-tagged human FcγRIIB (human) (P31994 46-217 limits assumed): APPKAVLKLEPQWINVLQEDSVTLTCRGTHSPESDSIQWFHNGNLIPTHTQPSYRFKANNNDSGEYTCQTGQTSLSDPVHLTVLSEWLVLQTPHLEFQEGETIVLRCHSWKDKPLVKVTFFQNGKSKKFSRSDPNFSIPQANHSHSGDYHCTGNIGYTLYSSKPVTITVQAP

Substance | EC50 [1] [nM] | U937 Cytotoxicity Human T-cells [M] (EC50, calcein release) (FcR on U937 cells) | EC50 [2] [nM] | Kd [3] [nM] | T1/2 [3] [min] | koff [3] [s⁻¹] | kon [3] [M⁻¹ s⁻¹] | Kd [4] [nM] | Kd [5] [nM] | Kd [6] [nM] | Kd [7] [nM] | Kd [8] [nM] | Kd [9] [nM] | Kd [10] [nM] | Kd [11] [nM] | Kd [12] [nM]
Control Antibody 1: monoclonal antibody OKT-3 against human T-cell surface antigens | 0.196 | 3.04e-12 | – | – | – | – | – | – | – | – | – | – | – | – | – | –
Control Antibody 2: antibody SP34 reactive against the epsilon chain of the T3 complex on human T lymphocyte cells | – | – | 0.0703 | – | – | – | – | – | – | – | – | – | – | – | – | –
wt-IgG1 Isotype Control (antibody) | – | – | – | 4.3 | 15 | 0.000748 | 174000 | 23 | 6 | 15 | 13 | 11 | 42 | 20 | 42 | –
wt-IgG4 CPPC Isotype Control (antibody) | – | – | – | 13.9 | 5 | – | – | – | 58 | – | 260 | 120 | 96 | 100 | 193 | 98
